PMC4155686, “Oleoyl Coenzyme A Regulates Interaction of Transcriptional Regulator RaaS (Rv1219c) with DNA in Mycobacteria*” (The Journal of Biological Chemistry, 2014)

T1: RaaS wild type (Mycobacterium tuberculosis, UniProt O86312 1-212)
T1 sequence: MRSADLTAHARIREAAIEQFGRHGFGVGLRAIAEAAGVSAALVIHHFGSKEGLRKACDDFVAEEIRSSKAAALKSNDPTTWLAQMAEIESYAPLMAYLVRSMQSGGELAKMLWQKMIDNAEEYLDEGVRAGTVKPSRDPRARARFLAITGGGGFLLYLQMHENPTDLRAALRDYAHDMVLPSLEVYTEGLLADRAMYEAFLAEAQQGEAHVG


Tests used:
RaaS wild type = target: T1, RaaS wild type; assay: fluorescence anisotropy; 4 nM DNA; conditions: protein: recombinant; chain copies: 2
[1] = target: the molecule itself; assay: small-angle X-ray scattering; protein alone in solution at 1 and 3 mg/ml, data extrapolated to infinite dilution; apparent molecular mass from I(0)

| Binder | Kd (RaaS wild type) | stoichiometry N [1] |
| --- | --- | --- |
| Pr14F/Pr14R (ATTO 647N) (dsDNA) DNA 1: GGGATGAACGTACGTTTAATATCCTGAACATGCGTTCAG DNA 2: GGGCTGAACGCATGTTCAGGATATTAAACGTACGTTCAT | 0.031 ± 0.006 µM |  |
| RaaS (regulator of antimicrobial-assisted survival), Rv1219c, wild type (natural protein, also called wild-type RaaS) MRSADLTAHARIREAAIEQFGRHGFGVGLRAIAEAAGVSAALVIHHFGSKEGLRKACDDFVAEEIRSSKAAALKSNDPTTWLAQMAEIESYAPLMAYLVRSMQSGGELAKMLWQKMIDNAEEYLDEGVRAGTVKPSRDPRARARFLAITGGGGFLLYLQMHENPTDLRAALRDYAHDMVLPSLEVYTEGLLADRAMYEAFLAEAQQGEAHVG |  | 2 |
